Source: publication PMC12846365 (2026)

Legend:
[1] = target: 48d IC as analyte in SPR (non-crosslinked control) (HIV-1 strain BG505, UniProt Q2N0S6); test: SPR
[2] = target: 48d.cl IC as analyte in SPR (Fab-Fab-crosslinked [change]) (HIV-1 strain BG505, UniProt Q2N0S6); test: SPR

B1: 2mutVRC01 (antibody, V domains shown)
VH: QVQLVQSGGQMKKPGESMRISCRASGYEFIDCTLNWIRLAPGKRPEWMGWLKPRGGAVNYARPLQGRVTMTRDVYSDTAFLELRSLTVDDTAVYFCTRGKNCDYNWDFEHWGRGTPVIVSS
VL: EIVLTQSPGTLSLSPGETAIISCRTSQYGSAALAWYQQRPGQAPRLVIYSGSTRAAGIPDRFSGSRWGPDYNLTISNLESGDFGVYYCQQYEFFGQGTKVQVD
- Kd [1]: 0.81 nM
- koff [1]: 0.00031 s⁻¹
- Kd [2]: 0.52 nM
- koff [2]: 0.00012 s⁻¹
